The values below come from article PMC3597701 (Nucleic Acids Research, 2013).

B1: Cdt1 (natural protein)
chain: MSGTANSRRKEVLRVPVIDLNRVSDEEQLLPVVRAILLQHDTFLLKNYANKAVLDALLAGLTTKDLPDTSQGFDANFTGTLPLEDDVWLEQYIFDTDPQLRFDRKCRNESLCSIYSRLFKLGLFFAQLCVKSVVSSAELQDCISTSHYATKLTRYFNDNGSTHDGADAGATVLPTGDDFQYLFERDYVTFLPTGVLTIFPCAKAIRYKPSTMATTDNSWVSIDEPDCLLFHTGTLLARWSQGMHTTSPLQIDPRANIVSLTIWPPLTTPISSKGEGTIANHLLEQQIKAFPKVAQQYYPRELSILRLQDAMKFVKELFTVCETVLSLNALSRSTGVPPELHVLLPQISSMMKRKIVQDDILKLLTIWSDAYVVELNSRGELTMNLPKRDNLTTLTNKSRTLAFVERAESWYQQVIASKDEIMTDVPAFKINKRRSSSNSKTVLSSKVQTKSSNANALNNSRYLANSKENFMYKEKMPDSQANLMDRLRERERRSAALLSQRQKRYQQFLAMKMTQVFDILFSLTRGQPYTETYLSSLIVDSLQDSNNPIGTKEASEILAGLQGILPMDISVHQVDGGLKVYRWNSLDKNRFSKLLQIHKSKQQD
B2: Cdc6 (natural protein)
chain: MSAIPITPTKRIRRNLFDDAPATPPRPLKRKKLQFTDVTPESSPEKLQFGSQSIFLRTKALLQKSSELVNLNSSDGALPARTAEYEQVMNFLAKAISEHRSDSLYITGPPGTGKTAQLDMIIRQKFQSLPLSLSTPRSKDVLRHTNPNLQNLSWFELPDGRLESVAVTSINCISLGEPSSIFQKIFDSFQDLNGPTLQIKNMQHLQKFLEPYHKKTTFVVVLDEMDRLLHANTSETQSVRTILELFLLAKLPTVSFVLIGMANSLDMKDRFLSRLNLDRGLLPQTIVFQPYTAEQMYEIVIQKMSSLPTIIFQPMAIKFAAKKCAGNTGDLRKLFDVLRGSIEIYELEKRFLLSPTRGSLNSAQVPLTPTTSPVKKSYPEPQGKIGLNYIAKVFSKFVNNNSTRTRIAKLNIQQKLILCTIIQSLKLNSDATIDESFDHYIKAITKTDTLAPLQRNEFLEICTILETCGLVSIKKTKCKGKTKRFVDKIDVDLDMREFYDEMTKISILKPFLH
B3: Cdc6 N263A (sensor-1 mutant) (natural protein)
chain: B2 chain with N263A

Where a chain is given by its changes, count along the chain named. Names may count otherwise.

This experiment has as its target origin recognition complex (ORC) (S. cerevisiae, UniProt P54784;P32833;P54790;P54791;P50874;P38826). Description: in vitro pre-RC assembly assay on origin DNA beads.
Take B1: the binding result is recorded as “binds”.

B2: the binding result is “binds”.

On to B3, for which the binding result is recorded as “binds”.
